Laboratory results as given in article PMC8402870.
Like-named read-outs stand apart in the source and are kept apart here.

Key:
[1] = system: T1, Pf4r (repressor C) (Pseudomonas aeruginosa PAO1 (Pf4 filamentous prophage)), ORF:4ff4b857; experiment: EMSA
T1 sequence: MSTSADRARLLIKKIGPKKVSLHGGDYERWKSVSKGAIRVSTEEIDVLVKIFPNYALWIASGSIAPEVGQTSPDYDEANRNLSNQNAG

[2] = target: Pf4r, repressor C protein of the Pf4 filamentous phage (wild type) (Pf4 filamentous phage (prophage of Pseudomonas aeruginosa PAO1)); experiment: SEC-MALS; Superdex 75 5/150 equilibrated with PBS; samples prepared in 20 mM HEPES pH 7.5, 300 mM NaCl, 10% glycerol, 2 mM TCEP; 50 uL loaded at 20 mg/mL; monomer to dimer
[3] = target: Pf6r, repressor of the Pf6 filamentous phage (wild type) (Pf6 filamentous phage (prophage of Pseudomonas aeruginosa PAO1)); experiment: as above

Substance | binding [1] | other results
TTTTGGGGCCGATTTTCTTGATTAATAGTCTTGCTCTATCGGCTGACGTGCTCATATAGAAATTTATTCCGGGGAAATAGTTGCCCTGACGTGGCTTTGGGGAGATAATTTCTCCAGGGTAATTATTTCTCTA (double strand) [Ppf4r-A>G] | no binding | 
TTTTGGGGCCGATTTTCTTGATTAATAGTCTTGCTCTATCGGCTGACGTGCTCATATAGAAATTTATTCCGGTGAAATAGTTGCCCTGACGTGGCTTTGGGGAAATAATTTCTCCAGGGTAATTATTTCTCTA (double strand) [Ppf4r-G>T] | binds more weakly | 
Pf4r, repressor C protein of the Pf4 filamentous phage (wild type) (natural protein) |  | stoichiometry N [2]: 2
TTTTGGGGCCGATTTTCTTGATTAATAGTCTTGCTCTATCGGCTGACGTGCTCATATAGAAATTTATTCCGGGGAAATAGTTGCCCTGACGTGGCTTTGGGGAAATAATTTCTCCAGGGTAATTATTTCTCTA (double strand) [Ppf4r] |  | binding ([1]; EMSA: 10 mM Tris, 1 mM DTT, 2.5% glycerol, 5 ug/uL BSA, 0.05% NP-40, 80 mM KCl, 5 mM MgCl2, 2 mM EDTA, 10 fmol probe, 30 min, 30 C (protein diluted in TE pH …)): binds
Pf6r, repressor of the Pf6 filamentous phage (wild type) (natural protein) |  | stoichiometry N [3]: 2
TTTTGGGGCCGATTTTCTTGATTAATAGTCTTGCTCTATCGGCTGACGTGCTCATATAGAAATTTATTCCGGTGAAATAGTTGCCCTGACGTGGCTTTGGGGAGATAATTTCTCCAGGGTAATTATTTCTCTA (double strand) [Ppf4r-doubleSNP] | no binding | 
